Measured values reported in the RNAGym collection of RNA variant scans (doi:10.1073/pnas.2313332121).
Fewer inactive variants are shown than the library holds.

B1: TPR 5TU (parent)
chain: GGAUCUUCUCGAUCUAACAAAAAAGACAAAUCUGCCACAAAGCUUGAGAGCAUCUUCGGAUGCAGAGGCGGCAGCCUUCGGUGGCGCGAUAGCGCCAACGUUCUCAACUAUGACACGCAAAACGCGUGCUCCGUUGAAUGGAGUUUAUCAUG

Variants of: B1
Test: polymerase ribozyme fitness, log enrichment relative to wild type (log ratio); higher = more active; in vitro selection for triplet polymerase activity
Method in brief: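 Genotype fitness is the logarithm of its enrichment divided by wild-type enrichment, using inverse-variance-weighted averages of replicates. That logarithm is base 2. Enrichment was measured by Illumina sequencing of input and output libraries from one triplicate in vitro selection round, with frozen incubation at −7 °C, on PCR-built, transcribed mutant libraries of each subunit of a heterodimeric triplet polymerase ribozyme, retaining genotypes with ≥10 input reads and ≥1 read per output.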

Variant	polymerase ribozyme fitness (log ratio)
A22G U33G	-3.24
A22U C32A C36A C57U C96G C116U U139G	≤ -4.2
A21U G34A C69A C132G	≤ -4.2
A22C A39C	-2.49
A21U U55A C85U U148A	-4.07
A22G G70U C118U	-3.77
A21U C32A C51U A73G U134G	≤ -4.2
A22G A29U U77C C85G C95U C103U C114G C125U	≤ -4.2
A22C A28U G58C A91C	≤ -4.2
A21U G25A A89C	-3.68
A22C C38A U44G C75A G84A G117A U135A U151G	≤ -4.2
A22G C27A A29G C38U G50C C72U G84A C118A	≤ -4.2
A22G A24U C63G	2.39
A22G A41C G62U C93A C95U C105A G112U C123G U134C G140A G141U	≤ -4.2
A22C C85A	-1.08
A22C C85U	-0.656
A22C G34C U55G A91C G92U	≤ -4.2
A22C U33C G88A A97C C131G	≤ -4.2
A21U C96A A110G C116U U145G	≤ -4.2
A22U A30U C32A U78G G88A G117U U139G	≤ -4.2
A22U C36A G83A U145A	≤ -4.2

Variant	polymerase ribozyme fitness (log ratio)
A21U C96G	-0.697
A21U C96A	-0.443
A22G A24U U55A C75G C76A C95G G124U G136U	≤ -4.2
A22G A28C U33G C93A G94C C95U A121U	≤ -4.2
A22G C54U G58A G59A C103G	-1.91
A21U C105G A113G C116U	-4.07
A22G G84A A91C C103G U104G	≤ -4.2
A21U U55G G70A C93A	≤ -4.2
A22C A37U U61G C85G A91U U146A	≤ -4.2
A22G C96U C114U A115U	≤ -4.2
A21U G84C A121U A122C	-1.35
A22U A29G G70A	≤ -4.2
A22C C27A U56A C85U C93A C99G A138U	≤ -4.2
A22U A97G	0.0508
A22U C123G	-0.0344
A21U A113U A137G U144A	-3.99
A22U C51U A137G A147C	-2.48
A22C C69U C93A U144A	-3.99
A22G U55A A89C	-0.257
A22C A24G A26U A52G G80A C85G G94U C123U	≤ -4.2
A22G C72A G86C C87A A110U U127C C132A U146G	≤ -4.2

Variant	polymerase ribozyme fitness (log ratio)
A22U C54G C95U	-2.06
A22U A23G G50C G74C	≤ -4.2
A22C A24G A52G G68U	≤ -4.2
A22U C76G C87G U101G G140C	-4.19
A21U G62C A66C G83U A91U G152A	≤ -4.2
A22C C63U G67C G84U A98C G128C U144A U151A	≤ -4.2
A22C U55A A97G G143C	-3.02
A22U C87A	-4.14
A22U C87U	0.455
A21U G83C	-1.57
A22C G59C G83A A89C	-1.16
A22G U55G C57U G84U C85A	-0.696
A22U C69G C75U C93U U101C U127A	≤ -4.2
A21U G128A	-3.26
A21U G80U G94A A147U	-0.607
A21U A52G C87U C114U U144G	-3.22
A22C C38U G81U C87G U144A	≤ -4.2
A22C C69G G81C	-1.85
A21U A113C U127G C132U	≤ -4.2
A21U C95A U146G	-0.389
A22C C51U G84U	-2.78

Variant	polymerase ribozyme fitness (log ratio)
A21U G141U	1.9
A21U G141C	0.187
A21U C69U C96A C129A U135A G143U	-0.753
A22G C108G C123G A150G	≤ -4.2
A22C G92C	-1.73
A22C A40U C57U G58A G65A C75A G133A A138U A142C	≤ -4.2
A21U C54U U146A	-0.081
A22G C93U	-0.637
A22G C93A	-1.55
A21U C51U C93G C105U A120G	-3.58
A22C A26C A49C U56A G59U G68U C85U G86U G94U A97G U134A	≤ -4.2
A22G A30U C36G G83C U146G	≤ -4.2
A21U G71C C93A	≤ -4.2
A22C A39C U55A U102G C129U	≤ -4.2
A22C C54U G84U U104G C114G G133U	≤ -4.2
A22G U33C C35U A66C	≤ -4.2
A22C U53A U56A A73G	-1.97
A22U C57G G58A C114G	-2.5
A22G A29U G50A U56G C87U C118U	≤ -4.2
A21U G59U C105U C129A	-2.46
